In patent US20030008291A1 (RIKEN, published 2003):

Experiments:
UvrA [1] = molecular target: T1, UvrA; assay: SPR (BIAcore), His-tagged β domain immobilised on Ni-NTA sensor chip, UvrA injected, with ATP (+ ATP)
T1 construct: UvrA was the analyte in the BIAcore experiment

UvrA [2] = molecular target: T1, UvrA; assay: SPR (BIAcore), His-tagged β domain immobilised on Ni-NTA sensor chip, UvrA injected, without ATP (- ATP)

Kd (UvrA [1]): 400 nM | koff (UvrA [1]): 0.06 s⁻¹ | kon (UvrA [1]): 150000 M⁻¹ s⁻¹ | Kd (UvrA [2]): 2600 nM | koff (UvrA [2]): 0.52 s⁻¹ | kon (UvrA [2]): 200000 M⁻¹ s⁻¹
B1: UvrB-β (enzyme)
chain: RNLVVERGKPYPREVLLERLLELGYQRNDIDLSPGRFRAKGEVLEIFPAYETEPIRVELFGDEVERISQVHPVTGERLRELPGFVLFPA
